Consider 18 molecules from patent US20260139049A1 (PEDIATRIC IMMUNITY AND HEALTHCARE GUANGZHOU BIOTECHNOLOGY, published 2026).

The labels stand for the following.
B1: PiH1003 (antibody, human IgG1, kappa, V domains shown)
VH: QVQLVQSGAEVKKPGASVKVSCKASGYTFTDYNMHWVRQAPGQGLEWIGYVNPNNGATSYNQKFKGRATMTVDTSTSTVYMELSSLRSEDTAVYNCARWDGYVYYYGLDYWGQGTLVTVSS
VL: DIQMTQSPSSLSASVGDRVTITCKASDHINNWLAWYQQKPGKVPKLLISGATSLETGVPSRFSGSGSGTDYTLTISSLQPEDVATYYCQQYWSTPYTFGGGTKLEIKR
notes: humanized from 51C10H4; IgG1; also called 51-VH3 + VL3
B2: PiH1005 (antibody, human IgG1, kappa, V domains shown)
VH: B1 VH with V72R, N95Y
VL: B1 VL with D17G, K45R
notes: humanized from 51C10H4; IgG1; also called 51-VH1 + VL4
B3: PiH1002 (antibody, human IgG1, kappa, V domains shown)
VH: B1 VH with A68V
VL: B1 VL
notes: humanized from 51C10H4; IgG1; also called 51-VH2 + VL3
B4: PiH1008 (antibody, human IgG1, kappa, V domains shown)
VH: B1 VH with G44S, T74K
VL: B1 VL with D17G, K45R
notes: humanized from 51C10H4; IgG1; also called 51-VH4 + VL4
B5: PiH1001 (antibody, human IgG1, kappa, V domains shown)
VH: B1 VH with V72R, N95Y
VL: B1 VL
notes: humanized from 51C10H4; IgG1; also called 51-VH1 + VL3
B6: PiH1006 (antibody, human IgG1, kappa, V domains shown)
VH: B1 VH with A68V
VL: B1 VL with D17G, K45R
notes: humanized from 51C10H4; IgG1; also called 51-VH2 + VL4
B7: PiH1007 (antibody, human IgG1, kappa, V domains shown)
VH: B1 VH
VL: B1 VL with D17G, K45R
notes: humanized from 51C10H4; IgG1; also called 51-VH3 + VL4
B8: PiH1004-VH-Mutation8-VL (antibody, human IgG1, kappa, V domains shown)
VH: B1 VH with G44S, V51L, T74K
VL: B1 VL
notes: improved antibody from PiH1004
B9: PiH1004-VH-VL-Mutation4 (antibody, human IgG1, kappa, V domains shown)
VH: B1 VH with G44S, T74K
VL: B1 VL with A51G
notes: as for B8
B10: PiH1004-VH-VL-Mutation7 (antibody, human IgG1, kappa, V domains shown)
VH: B1 VH with G44S, T74K
VL: B1 VL with S93H
notes: as for B8
B11: PiH1004-VH-VL-Mutation3 (antibody, human IgG1, kappa, V domains shown)
VH: B1 VH with G44S, T74K
VL: B1 VL with N31Q
notes: as for B8
B12: PiH1004-VH-VL-Mutation6 (antibody, human IgG1, kappa, V domains shown)
VH: B1 VH with G44S, T74K
VL: B1 VL with W92G
notes: as for B8
B13: PiH1004-VH-VL-Mutation2 (antibody, human IgG1, kappa, V domains shown)
VH: B1 VH with G44S, T74K
VL: B1 VL with I29V
notes: as for B8
B14: PiH1004-VH-Mutation11-VL (antibody, human IgG1, kappa, V domains shown)
VH: B1 VH with G44S, T74K, Y110F
VL: B1 VL
notes: as for B8
B15: PiH2010 (antibody, human IgG1, kappa, V domains shown)
VH: B1 VH with P41T, V51I, S59N, V72R, D73N, T74K, T76I, V79A, S84R, L108M
VL: B1 VL with K45R, T69K, S93N
notes: humanized from 54B5A7; IgG1; also called 54-VH6 + VL5
B16: PiH2012 (antibody, human IgG1, kappa, V domains shown)
VH: QVQLVQSGAEVKKPGASVKVSCKASGYTFTDYNMHWVRKATGQSLEWIGYINPNNGATNYNQKFKGRATMTRNKSISTAYMELRSLRSEDTAVYNCARWDGYVYYYGMDYWGQGTLVTVSS
VL: B1 VL with K45R, T69K, S93N
notes: humanized from 54B5A7; IgG1; also called 54-VH8 + VL5
B17: PiH2011 (antibody, human IgG1, kappa, V domains shown)
VH: B16 VH with K39Q, S44G, M70L, R72V, N95Y
VL: B1 VL with K45R, T69K, S93N
notes: humanized from 54B5A7; IgG1; also called 54-VH7 + VL5
B18: PiH2009 (antibody, human IgG1, kappa, V domains shown)
VH: B16 VH with K39Q, S44G, N95Y
VL: B1 VL with K45R, T69K, S93N
notes: humanized from 54B5A7; IgG1; also called 54-VH5 + VL5

Broadly, the EC50 is the concentration at which the effect is half-maximal. A low value points to higher potency in that assay.

Numbering of substitutions follows the chain as printed.

The target in the first assay is T1, human CLDN6 (human, UniProt P56747 1-220).
T1 construct: whole, on cells; four-transmembrane protein; also called claudin-6; HEK293T-CLDN6
T1 sequence (looked up): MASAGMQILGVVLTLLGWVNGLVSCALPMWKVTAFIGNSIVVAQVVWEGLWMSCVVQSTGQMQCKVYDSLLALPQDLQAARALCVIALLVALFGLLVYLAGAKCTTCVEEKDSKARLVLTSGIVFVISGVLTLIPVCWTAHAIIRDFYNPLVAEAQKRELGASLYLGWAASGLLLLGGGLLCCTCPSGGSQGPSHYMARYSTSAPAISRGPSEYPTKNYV
The assay can be described thus: FACS on HEK293T-CLDN6 cells. The protocol:
To detect a binding capacity of a chimeric or humanized antibody to CLDN6, a CLDN6-expressing cell line HEK293T-CLDN6 and a CLDN6-negative control cell line HEK293T were washed three times with PBS. 1×10⁵ test cells and 50 μL of an antibody solution to be tested were added to a 96-well plate, and incubated at 4° C. for 1 h. The cells were then washed three times with PBS. […] Finally, cells were washed three times with PBS, and signals were read using FACS.
An EC50 value (a concentration of an antibody that binds to half of binding sites at equilibrium) is calculated through nonlinear regression.
B1 displayed an EC50 of 0.455 µg/mL.
Still for that read-out and setting: next, B2: 0.372 µg/mL.
On the same count and under the same terms, next, B3: 0.635 µg/mL.
B4 registered an EC50 of 0.447 µg/mL.
On the same count and under the same terms, then B5, with 0.488 µg/mL.
Still for that read-out and setting: next, B6: 0.536 µg/mL; B7: 0.374 µg/mL.

In another assay the target is T1, human CLDN6. The assay can be described thus: FACS on CHO-K1-CLDN6 cells, against PiH1004 (FIG. 40).
With B8, the binding result is listed as “binds”.
B9: the binding result was “binds”.
For the molecule B10, the binding result is “binds”.
As for B11, the binding result was “binds”.
B12: the binding result is “binds”.
On to B13, for which the binding result was “binds”.
Take B14: the binding result is recorded as “binds”.

For the next assay, the target named is T1, human CLDN6. As to the kind of experiment: FACS on PA-1 tumour cells; target on the cells taken as CLDN6. The protocol:
(§1) 50 μL of an antibody to be tested was added to a 96-well plate, then 1×10⁵ cells were added to each well, and incubation was conducted at 4° C. for 1 h. Cells were washed three times with PBS. […] Finally, cells were washed three times with PBS, and signals were read using FACS. A binding capacity of the antibody to each tumor cell was analyzed based on detection data.
Turning to B1, it took 0.883 µg/mL to reach a half-maximal effect (EC50).
B2 returned an EC50 of 0.505 µg/mL.
The molecule B3 returned an EC50 of 0.754 µg/mL.
Still for that read-out and setting: then B4, with 0.455 µg/mL; and B5, with 0.631 µg/mL.
B6 gave an EC50 of 0.75 µg/mL.
For B7, the EC50 stood at 0.697 µg/mL.

A further assay addresses T1, human CLDN6. The assay can be described thus: FACS on HepG2 tumour cells; target on the cells taken as CLDN6. The protocol: as §1
The molecule B2 had an EC50 of 2.35 µg/mL.
With B4, a half-maximal effect (EC50) was put at 0.886 µg/mL.
As for B5, a half-maximal response (EC50) required 1.76 µg/mL.
Still for that read-out and setting: then B6, with 1.5 µg/mL.
B7 displayed an EC50 of 2.48 µg/mL.

A further assay has as its target T1, human CLDN6. Described as above. This is another data set of the same source. Here is the method: as §1
In the case of B15, the response was half-maximal at 1.4 µg/mL (EC50).
In the case of B16, the EC50 was 0.444 µg/mL.
Molecule B17 had an EC50 of 4.7 µg/mL.
The molecule B18 came in with an EC50 of 1.11 µg/mL.
